Test results published in paper PMC11601447.
Blank lines part the entries; values can stand above or below the substance they belong to.

How the values were obtained:
hClpP^dCTE-S153A (human) = hClpP^dCTE-S153A (human) (UniProt Q16740); experiment: cryo-EM structure
hClpX E285A (human) = hClpX E285A (human) (UniProt O76031); experiment: negative stain EM
[1] = target: bortezomib-bound hClpP (human) (UniProt Q16740); experiment: cryo-EM structure

stoichiometry N (hClpP^dCTE-S153A (human)): 14
Substance: hClpP^dCTE-S153A (from UniProt Q16740 58-277) (enzyme)

stoichiometry N (hClpX E285A (human)): 6
Substance: hClpX E285A (from UniProt O76031 57-633) (enzyme)

stoichiometry N [1]: 14
Substance: bortezomib-bound hClpP (from UniProt Q16740 58-277) (enzyme)
